The values that follow come from patent US20020137055, “Method and apparatus for measurement of the effect of test compounds on signal transduction at the level of biological receptors” (published 2002).

Conditions in all cases: protein: extract; tags: Cy5-labelled; expressed as ubiquitin fusion in Saccharomyces cerevisiae AF103 (YEpE10 plasmid); yeast extract preparation
For data set [1], the target named is T1, human estrogen receptor (recombinant hER, 65 kDa) (Homo sapiens, UniProt P03372 P03372:1-595). Description: evanescent fiber optic sensor; with 1e-6 M estrone; control 3.51. The method, then: (§1) This solution comprised said calibration standard of component 6a. […] This receptor preparation was used as the calibration solution. Immediately after preparation it was pipetted in 135 μl aliquots into microcentrifuge tubes, snap frozen and stored at −80° C. They were not thawed again until they were used with the fiber sensor. Sample solutions of component 6a were similarly prepared, except that the dilution at the end with receptor buffer gave a total receptor concentration of […]. If the solution was to be used with an ERE fiber (component 1a type 2), then polydeoxyinosinic-deoxycytidylic acid sodium salt was added to the receptor buffer to prevent nonspecific binding to the ERE fiber. Solutions containing 4.4×10⁻¹⁰ M Cy5-tagged-estrogen-receptor solution and in addition to a predetermined amount of estrogen or estrogen mimic were created to test the impact of said estrogen or estrogen mimic.
(§2) 12) Using fiber sensors of component 1a type 2, and the foregoing procedure the S/C value was calculated for several different estrogens tested at 10⁻⁶ M concentration.

In data set [2] the target is T1, human estrogen receptor (recombinant …). Description: evanescent fiber optic sensor; with 1e-6 M diethylstilbestrol; control 3.51. The method, then: as §1, §2
Data set [3] shares this target. Briefly: evanescent fiber optic sensor; with 1e-6 M zearalenone; control 3.51. The method, then: as §1, §2
The target is the same in data set [4]. Description: evanescent fiber optic sensor; control, no ligand; 4.4e-10 M receptor; 500 mM KCl phosphate pH 7.5, poly(dI-dC). The method, then:
as §1, §2

T1 sequence (P03372 whole entry, one chain of several): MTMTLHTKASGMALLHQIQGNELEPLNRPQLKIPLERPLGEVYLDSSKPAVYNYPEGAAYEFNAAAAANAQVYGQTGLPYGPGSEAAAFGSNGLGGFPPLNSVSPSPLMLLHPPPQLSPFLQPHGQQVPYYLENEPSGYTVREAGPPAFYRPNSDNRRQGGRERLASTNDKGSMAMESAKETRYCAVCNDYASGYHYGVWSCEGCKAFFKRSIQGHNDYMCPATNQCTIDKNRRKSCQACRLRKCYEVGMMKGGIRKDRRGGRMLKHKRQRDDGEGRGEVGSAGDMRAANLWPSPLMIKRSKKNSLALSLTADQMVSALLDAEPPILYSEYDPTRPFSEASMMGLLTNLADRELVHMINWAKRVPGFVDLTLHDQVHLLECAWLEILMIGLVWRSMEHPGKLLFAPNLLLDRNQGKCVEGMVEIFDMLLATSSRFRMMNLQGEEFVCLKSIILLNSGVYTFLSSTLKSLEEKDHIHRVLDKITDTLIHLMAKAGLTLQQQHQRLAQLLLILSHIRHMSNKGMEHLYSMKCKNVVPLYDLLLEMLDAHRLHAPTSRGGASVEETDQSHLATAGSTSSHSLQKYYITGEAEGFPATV

B1: ERE (Xenopus vitellogenin A2 estrogen response element) (dsDNA)
DNA 1: GTCCAAAGTCAGGTCACAGTGACCTGATCAAAGTT
DNA 2: AACTTTGATCAGGTCACTGTGACCTGACTTTGGAC
modifications: amine on the 5' G residue of one strand, covalently linked to optical fiber via GMBS
In the case of B1, the binding signal in data set [1] was 4.44 S/C ratio; in data set [2], 4.87 S/C ratio; in data set [3], 5.01 S/C ratio; in data set [4], 3.51 S/C ratio.
